These results are taken from patent US20220204603A1 (PHARMABCINE, published 2022).

Substitutions are numbered along the chain they refer to.

Broadly, the Kd is the constant that tells how readily two partners part at equilibrium. The term koff denotes the rate constant with which the complex falls apart. Low values mean a long-lived complex, high ones a short-lived complex. By kon is commonly meant the rate constant with which the complex forms. As usually defined, the IC50 is the midpoint of a concentration-inhibition curve.

Assay [1] deals with T1, mouse Ang2 (construct not stated) (mouse, UniProt O35608 19-496, limits assumed).
T1 construct: also called mAng2
T1 sequence (looked up): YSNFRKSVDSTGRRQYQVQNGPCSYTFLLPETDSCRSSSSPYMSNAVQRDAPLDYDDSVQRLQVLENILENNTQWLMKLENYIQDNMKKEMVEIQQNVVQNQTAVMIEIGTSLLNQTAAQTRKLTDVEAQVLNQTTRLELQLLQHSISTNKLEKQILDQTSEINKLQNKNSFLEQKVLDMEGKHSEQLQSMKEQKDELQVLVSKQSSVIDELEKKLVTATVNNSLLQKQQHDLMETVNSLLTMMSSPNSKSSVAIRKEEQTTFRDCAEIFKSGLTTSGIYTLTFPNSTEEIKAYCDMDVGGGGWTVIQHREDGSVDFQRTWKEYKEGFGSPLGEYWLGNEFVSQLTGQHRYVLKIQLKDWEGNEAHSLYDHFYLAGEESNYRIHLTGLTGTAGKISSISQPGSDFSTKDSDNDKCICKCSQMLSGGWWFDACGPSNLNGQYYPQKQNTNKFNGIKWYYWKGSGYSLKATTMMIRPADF
Briefly: SPR Biacore T200, antibody captured on protein A chip, Ang2 as analyte, 1:1 model. The protocol: To analyze the binding affinity of the selected anti-Ang2 antibodies, affinity analysis for human Ang2 and mouse Ang2 was performed using BIACORE® T200 (GE Healthcare). A protein A sensor chip was used, and an experiment was conducted in accordance with the manufacturer's manual. Detailed analysis conditions are as follows. 2000 response units (RU) of protein A were immobilized, 25 RU of anti-Ang2 antibody candidates were used for binding, and various concentrations of human Ang2 and mouse Ang2 were allowed to bind. The starting concentrations for analysis are 100 nM and 150 nM, respectively. The analysis proceeded at a flow rate of 30 μl/min, the binding and dissociation time of human Ang2 was measured as 300 seconds and 2000 seconds, respectively, and the binding and dissociation time of mouse Ang2 was analyzed as 300 seconds and 1000 seconds, respectively. Analysis was performed using a 1:1 binding model as an analytical model.
Background: SPR reads the build-up and loss of mass on a sensor chip optically.

The target in assay [2] is T1, mouse Ang2 (construct not stated). The assay is described as follows: competition ELISA: antibody preincubated with mAng2, binding to coated mouse Tie2-Fc.
For assay [3], the target named is hAng2-Fc (PharmAbcine) (human) (UniProt O15123). The assay is described as follows: phage ELISA, antigen coated at 1 µg/ml, anti-M13-HRP.
In assay [4] the target is T2, Ang2 immobilized on a biosensor (Octet off-rate screening) (Homo sapiens (Human), UniProt O15123 19-496).
T2 construct: also called Ang2 antigen; not shown: It is a His tag if hAng2-his (R&D 623-AN/CF) was used, or an Fc if hAng2-Fc (PharmAbcine) was used
T2 sequence: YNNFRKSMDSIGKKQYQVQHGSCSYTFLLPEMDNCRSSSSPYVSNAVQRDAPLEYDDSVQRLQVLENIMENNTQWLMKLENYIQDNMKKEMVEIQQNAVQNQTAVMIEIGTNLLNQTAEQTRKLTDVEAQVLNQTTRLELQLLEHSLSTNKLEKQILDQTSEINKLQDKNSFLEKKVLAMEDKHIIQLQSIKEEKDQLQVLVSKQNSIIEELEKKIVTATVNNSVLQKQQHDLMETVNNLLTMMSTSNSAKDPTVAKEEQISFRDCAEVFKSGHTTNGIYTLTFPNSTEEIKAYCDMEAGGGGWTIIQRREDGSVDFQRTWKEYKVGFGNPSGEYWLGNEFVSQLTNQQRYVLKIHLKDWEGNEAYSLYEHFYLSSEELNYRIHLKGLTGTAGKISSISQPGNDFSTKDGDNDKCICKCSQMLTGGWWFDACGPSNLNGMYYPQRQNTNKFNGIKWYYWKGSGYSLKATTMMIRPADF
Briefly: Octet (BLI), Ang2 immobilized on biosensor, scFv in solution. A general note: BLI is a label-free optical method that tracks binding on a fibre tip over time.

A further assay concerns the target T3, mAng1-Fc (PharmAbcine) (mouse, UniProt O08538 20-498, limits assumed).
T3 construct: In-house (PharmAbcine) Fc fusion; not shown: Fc part
T3 sequence (looked up): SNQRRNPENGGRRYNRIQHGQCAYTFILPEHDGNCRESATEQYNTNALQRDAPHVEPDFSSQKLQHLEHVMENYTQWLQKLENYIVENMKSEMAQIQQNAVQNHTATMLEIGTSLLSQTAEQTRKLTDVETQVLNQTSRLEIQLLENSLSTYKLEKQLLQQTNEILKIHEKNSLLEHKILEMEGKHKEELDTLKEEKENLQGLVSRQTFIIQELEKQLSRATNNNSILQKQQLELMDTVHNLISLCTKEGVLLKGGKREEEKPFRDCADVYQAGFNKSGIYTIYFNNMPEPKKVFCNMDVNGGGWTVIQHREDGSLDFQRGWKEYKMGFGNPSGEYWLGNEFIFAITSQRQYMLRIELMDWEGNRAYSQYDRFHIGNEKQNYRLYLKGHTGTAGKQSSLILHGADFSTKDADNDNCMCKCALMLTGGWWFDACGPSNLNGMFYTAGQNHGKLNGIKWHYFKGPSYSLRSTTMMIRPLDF
Briefly: phage ELISA, antigen coated at 1 µg/ml, anti-M13-HRP. In general terms: An ELISA detects its analyte on a solid surface through an enzyme-linked reagent.

For assay [5], the target named is human Ang2 (construct not stated) (human) (UniProt O15123). The assay is described as follows: Octet (BLI), scFv immobilized on biosensor, human Ang2 in solution.

In assay [1], nesvacumab (antibody) came in with a dissociation constant Kd of 0.262 nM, a koff of 5.51e-05 s⁻¹ and a kon of 210000 M⁻¹ s⁻¹. In assay [2], this molecule showed a half-maximal inhibitory concentration (IC50) of 10.4 nM.

B1: No. 3 monoclonal scFv phage (scFv, V domains shown, not shown: large carriers)
VH: QMQLVQSGGGLVQPGRSLKLSCAASGFSFDDYAMHWVRQAPGKGLEWVATIKDDGSQTYYVDSVKGRFTISRDNAKSSLFLQMNSLRAEDTAVYYCTTEGLMNGLHFDMWGQGTMVTVSS
VL: LVLTQPPSVSGAPGQGVTISCTGSSSNIGAGYDVHWYQQFPGTAPKLLISGNNNRPSGLPDRFSGSKSGTSASLAITGLQAEDEADYYCQSYDSRLGVVFGGGTKLTVLG
modifications: scFv linker; phage coat protein fusion
B1: the OD in assay [3] amounted to 1.9 OD.

B2: No. 3 candidate antibody expressed in the form of scFv (scFv, V domains shown)
VH: B1 VH
VL: B1 VL
B2: the koff in assay [4] was determined as 0.000642 s⁻¹.

B3: No. 46 monoclonal scFv phage (scFv)
chain: QVQLVESGGGLVQPGRSLRLSCAASGFTFDDCAMHWVRQAPGKGLEWVSGISGNSKNVAYADSVKGRFSISRDDAKNSLYLQMNSLRAEDTAVYYCARDPAYSQFDYWGQGTLITVSSQSALTQPPSLSATPGQRVTISCSGSSSNVGGYPVNWYQQVPGAAPKLLMYTDYKRPSGVPDRFFGSKSGTSASLAISGLQSEDEADYYCATWDDNLNGYVFGTGTKVTVLG
Regarding B3, the OD with mAng1-Fc (PharmAbcine) was determined as 0.061 OD.

B4: No. 46 monoclonal scFv phage (scFv, V domains shown, not shown: large carriers)
VH: QVQLVESGGGLVQPGRSLRLSCAASGFTFDDCAMHWVRQAPGKGLEWVSGISGNSKNVAYADSVKGRFSISRDDAKNSLYLQMNSLRAEDTAVYYCARDPAYSQFDYWGQGTLITVSS
VL: QSALTQPPSLSATPGQRVTISCSGSSSNVGGYPVNWYQQVPGAAPKLLMYTDYKRPSGVPDRFFGSKSGTSASLAISGLQSEDEADYYCATWDDNLNGYVFGTGTKVTVLG
modifications: scFv linker; phage coat protein fusion
For the molecule B4, the OD in assay [3] was 1.19 OD.

B5: No. 46 candidate antibody expressed in the form of scFv (scFv, V domains shown)
VH: B4 VH
VL: B4 VL
For the molecule B5, in assay [4], the koff came out at 6.14e-05 s⁻¹.

B6: No. 41 monoclonal scFv phage (scFv)
chain: QVQLVESGGGLVQPGGSLRLSCEASGFAFGRYEMNWVRQAPGKGLEWIAYIDTGGGAKVYADSVKGRFTISRDDSKNSLYLQMNSLRAEDTAVYYCTTEGLMNGLHFDMWGQGTMITVSSDIQMTQSPSTLSASVGDRVAITCRASQAISTWLAWYQQKPGKAPKLLIYTASTLESGVPSRFSGSGSGTDFTLTINSLQPDDFATYYCQQLNSYPYTFGGGTKVEIKR
For the molecule B6, in the assay with mAng1-Fc (PharmAbcine), the OD stood at 0.111 OD.

B7: No. 41 monoclonal scFv phage (scFv, V domains shown, not shown: large carriers)
VH: QVQLVESGGGLVQPGGSLRLSCEASGFAFGRYEMNWVRQAPGKGLEWIAYIDTGGGAKVYADSVKGRFTISRDDSKNSLYLQMNSLRAEDTAVYYCTTEGLMNGLHFDMWGQGTMITVSS
VL: DIQMTQSPSTLSASVGDRVAITCRASQAISTWLAWYQQKPGKAPKLLIYTASTLESGVPSRFSGSGSGTDFTLTINSLQPDDFATYYCQQLNSYPYTFGGGTKVEIKR
modifications: scFv linker; phage coat protein fusion
On to B7, for which the OD in assay [3] worked out at 0.825 OD.

B8: No. 41 candidate antibody expressed in the form of scFv (scFv, V domains shown)
VH: B7 VH
VL: B7 VL
Take B8: the dissociation rate constant (koff) in assay [4] is 1.08e-05 s⁻¹.

B9: No. 4 monoclonal scFv phage (scFv)
chain: QVQLVESGAEVKRPGESLRISCKTSGYSFTSYWIHWVRQMPGKELEWMGSIYPGNSDTRYSPSFQGHVTISADSSSSTAYLQWSSLKASDTAMYYCTTEGLMNGLHFDMWGQGTMVTVSSDIVMTQTPLSLPVTPGEPASISCRSSQSLLHSLGDNYLDWYLQKPGQSPQLLIYLGSKRAAGVPDRFSGSGSGTDFTLKISRVEAEDVGVYYCMQSLQTPPYTFGQGTKLEIKR
As for B9, the OD was 0.835 OD in assay [3] and 0.093 OD with mAng1-Fc (PharmAbcine).

B10: No. 8 monoclonal scFv phage (scFv)
chain: QVQLVESGGGLVKPGGSLRLSCAASGFTFSSYSMNWVRQAPGKGLEWVSSISASDGATYYADSVRGRFTISRDNSRSTLYLQMNSLRAEDTAVYYCAKILAGYSGPMGGMDVWGQGTTVTVSSDIQMTQSPSSLSASVGDRVTITCRASRDISNYLAWYQQKPGKAPKSLIYGASNLQSGVSSQFSGSGSGTDFTLTINSLQPEDSATYYCQQYYSYPLTFGGGTKVDIKR
Consider B10, for which the OD in assay [3] was found to be 1.36 OD; in the assay with mAng1-Fc (PharmAbcine), 0.199 OD.

B11: No. 8 candidate antibody expressed in the form of scFv (scFv)
chain: B10 chain
The molecule B11 yielded a koff in assay [4] of less than 1e-07 s⁻¹.

B12: No. O4 scFv, optimized anti-Ang2 scFv antibody expressed in E. coli (pET-22b), refolded and purified (scFv, part only; not given: scFv linker and His tag, not shown: small tags and cut ends)
scFv, part: B10 chain with I99T
In assay [5], B12 yielded an equilibrium dissociation constant (Kd) of 0.28 nM, a dissociation rate constant (koff) of 2.54e-05 s⁻¹ and an on-rate constant (kon) of 94000 M⁻¹ s⁻¹.

B13: No. 4 candidate antibody expressed in the form of scFv (scFv, V domains shown)
VH: QVQLVESGAEVKRPGESLRISCKTSGYSFTSYWIHWVRQMPGKELEWMGSIYPGNSDTRYSPSFQGHVTISADSSSSTAYLQWSSLKASDTAMYYCTTEGLMNGLHFDMWGQGTMVTVSS
VL: DIVMTQTPLSLPVTPGEPASISCRSSQSLLHSLGDNYLDWYLQKPGQSPQLLIYLGSKRAAGVPDRFSGSGSGTDFTLKISRVEAEDVGVYYCMQSLQTPPYTFGQGTKLEIKR
Regarding B13, the koff in assay [4] stood at 0.000212 s⁻¹.
